# Source: article PMC9922282, “Small molecule inhibitors of 15-PGDH exploit a physiologic induced-fit closing system” (Nature Communications, 2023)
# T1: 15-PGDH (Homo sapiens, UniProt P15428)
# T1 construct: gene HPGD; recombinant human 15-PGDH with C-terminal TEV-cleavable 6xHis tag, homodimer
# T1 sequence (P15428 1-256): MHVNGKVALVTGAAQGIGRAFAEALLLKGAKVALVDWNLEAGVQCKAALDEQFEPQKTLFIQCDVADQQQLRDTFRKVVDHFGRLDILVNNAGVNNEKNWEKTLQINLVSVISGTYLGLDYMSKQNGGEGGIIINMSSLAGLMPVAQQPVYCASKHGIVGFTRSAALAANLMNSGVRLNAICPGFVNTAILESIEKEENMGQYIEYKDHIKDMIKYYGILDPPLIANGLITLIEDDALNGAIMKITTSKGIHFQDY
# Key:
# [1] = molecular target: T1, 15-PGDH; test: cryo-EM structure of the 15-PGDH-NADH complex ([…] Å); thermal shift; assay type: binding
# [2] = substrate: CCCCC[C@H](O)/C=C/[C@H]1[C@H](O)CC(=O)[C@@H]1C/C=C\CCCC(=O)O; test: Michaelis-Menten kinetics of PGE2 oxidation (Km); assay type: biochemical, Homo sapiens; settings: NAD+ active site
Molecule,cryo-EM structure of the 15-PGDH-NADH complex (3.3 Å); thermal shift [1],Km [2] [µM]
NC(=O)C1=CN([C@@H]2O[C@H](COP(=O)(O)OP(=O)(O)OC[C@H]3O[C@@H](n4cnc5c(N)ncnc54)[C@H](O)[C@@H]3O)[C@@H](O)[C@H]2O)C=CC1 [NADH],we employed cryo-EM to solve the structure of the 15-PGDH-NADH complex in the absence of inhibitor,–
"15-PGDH (Homo sapiens) (protein, recombinant human 15-PGDH with C-terminal TEV-cleavable 6xHis tag) MHVNGKVALVTGAAQGIGRAFAEALLLKGAKVALVDWNLEAGVQCKAALDEQFEPQKTLFIQCDVADQQQLRDTFRKVVDHFGRLDILVNNAGVNNEKNWEKTLQINLVSVISGTYLGLDYMSKQNGGEGGIIINMSSLAGLMPVAQQPVYCASKHGIVGFTRSAALAANLMNSGVRLNAICPGFVNTAILESIEKEENMGQYIEYKDHIKDMIKYYGILDPPLIANGLITLIEDDALNGAIMKITTSKGIHFQDYDTTPFQAKTQ",–,2.2
"15-PGDH (Homo sapiens; Y217A) (protein, recombinant human 15-PGDH with C-terminal TEV-cleavable 6xHis tag) MHVNGKVALVTGAAQGIGRAFAEALLLKGAKVALVDWNLEAGVQCKAALDEQFEPQKTLFIQCDVADQQQLRDTFRKVVDHFGRLDILVNNAGVNNEKNWEKTLQINLVSVISGTYLGLDYMSKQNGGEGGIIINMSSLAGLMPVAQQPVYCASKHGIVGFTRSAALAANLMNSGVRLNAICPGFVNTAILESIEKEENMGQYIEYKDHIKDMIKYAGILDPPLIANGLITLIEDDALNGAIMKITTSKGIHFQDYDTTPFQAKTQ",–,11
